Assay results: the supplement of paper PMC10724198
± gives the standard deviation of the averaged measurements.

Columns and labels:
Experiment in all cases: protein stability index of tFT-peptide fusion (C-terminal peptide) (PSI (0-1 scale)); higher = more stable (slower turnover)
Saccharomyces cerevisiae [1] = details: temperature: 30 C
Method: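 MPS profiling in S. cerevisiae of the yeast C-terminome library: the last 12 aa of each annotated ORF are fused to the C-terminus of a sfGFP-mCherry timer, after a GGGS linker. Cells are FACS-sorted into 8 mCherry/sfGFP bins and deep-sequenced. PSI runs from 0 (unstable) to 1 (stable); wild type and das1Δ backgrounds, two technical replicates each.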

Saccharomyces cerevisiae [2] = details: genetic background: wild type; temperature: 30 C
Saccharomyces cerevisiae [3] = system: Saccharomyces cerevisiae
Method: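 MPS profiling in S. cerevisiae of the tFT-X12 degron library: putative degron peptides plus stable controls, 12 aa, fused to the C-terminus of a sfGFP-mCherry timer. Cells are FACS-sorted into 8 mCherry/sfGFP bins and deep-sequenced. PSI runs from 0 (unstable) to 1 (stable). Backgrounds are wild type, das1Δ and doa10Δ at 30 °C, and wild type, das1Δ, cdc34-1 and cdc53-1 at 37 °C; 2-3 technical replicates each.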

[4] = genetic background: das1 deletion
[5] = genetic background: cdc34-1, temperature: 37 C
[6] = genetic background: cdc53-1, temperature: 37 C
[7] = genetic background: das1 deletion, temperature: 30 C
[8] = genetic background: das1 deletion, temperature: 37 C
[9] = genetic background: doa10 deletion, temperature: 30 C
[10] = genetic background: wild type, temperature: 30 C
[11] = genetic background: wild type, temperature: 37 C

Sequence	protein stability index (Saccharomyces cerevisiae [1]; [4])	protein stability index (Saccharomyces cerevisiae [1]; genetic background: wild type)	also measured
YKNRPNKEKDTL [STB6 C-terminal 12 aa]	0.693 ± 0.021	0.688 ± 0.047	–
GLEFVASRSASS [MDH2 C-terminal 12 aa]	0.692 ± 0.014	0.729 ± 0.033	–
MDSGLDLEFCKP [YKR075W-A C-terminal 12 aa]	0.687 ± 0.019	0.692 ± 0.045	–
TTRETPLPPIPA [TYW1 C-terminal 12 aa]	0.609 ± 0.012	0.642 ± 0.015	–
VGELDIKFDLKF [RTF1 C-terminal 12 aa]	0.733 ± 0.018	0.696 ± 0.0088	–
RDREMVRELFRR [RSO55 C-terminal 12 aa]	0.711 ± 0.017	0.692 ± 0.021	–
QGKTFYETVAKF [PST2 C-terminal 12 aa]	0.77 ± 0.03	0.776 ± 0.017	–
GCGEDLKKDILS [DOP1 C-terminal 12 aa]	0.71 ± 0.017	0.668 ± 0.024	–
IDEFYECLQDQQ [DCN1 C-terminal 12 aa]	0.704 ± 0.0073	0.721 ± 0.013	–
ADDDFDADMELE [CDC16 C-terminal 12 aa]	0.685 ± 0.0038	0.728 ± 0.028	–
KQIDVHLDKNKA [GCD7 C-terminal 12 aa]	0.6862 ± 0.004	0.697 ± 0.0038	–
TALLIDNILTCK [MRM1 C-terminal 12 aa]	0.7 ± 0.021	0.694 ± 0.048	–
NKGPPCKTSALL [HMG2 C-terminal 12 aa]	0.739 ± 0.023	0.668 ± 0.011	–
VSDAMFDQGDVF [GDH1 C-terminal 12 aa]	0.72756 ± 0.0006	0.707 ± 0.012	–
ATRNLNQYWRVL [YAL019W-A C-terminal 12 aa]	0.68 ± 0.011	0.58 ± 0.023	–
LEVYASGNPNAT [NDC1 C-terminal 12 aa]	0.697 ± 0.016	0.692 ± 0.0073	–
FYPVTSEFSKNK [HOB2 C-terminal 12 aa]	0.7 ± 0.039	0.767 ± 0.013	–
WKEVLKFPKSFN [HXT15 C-terminal 12 aa]	0.724 ± 0.0077	0.714 ± 0.031	–
FYDLWDAYEDDS [GDB1 C-terminal 12 aa]	0.751 ± 0.028	0.704 ± 0.013	–
SEEKSNLIEFEA [MDR1 C-terminal 12 aa]	0.705 ± 0.013	0.6734 ± 0.0028	–
VPQEDDRLHKLK [AIM3 C-terminal 12 aa]	0.701 ± 0.016	0.765 ± 0.039	–
QLEKEGEDGLDS [IES4 C-terminal 12 aa]	0.6881 ± 0.005	0.666 ± 0.043	–
YLARRKPSIELR [YPR170W-B C-terminal 12 aa]	0.716 ± 0.03	0.7212 ± 0.0052	–
SQMTKKRKTKKE [APN1 C-terminal 12 aa]	0.72 ± 0.015	0.786 ± 0.064	–
DWAPGKQLEMNH [JAC1 C-terminal 12 aa]	0.699 ± 0.018	0.743 ± 0.042	–
DEMHYSDEDSSE [RRN11 C-terminal 12 aa]	0.699 ± 0.073	0.709 ± 0.028	–

Sequence	protein stability index (Saccharomyces cerevisiae [1]; [4])	protein stability index (Saccharomyces cerevisiae [1]; genetic background: wild type)	also measured
VVDLIMEYLQDT [YDL057W C-terminal 12 aa]	0.699 ± 0.013	0.741 ± 0.078	–
KQMYKYHIIVLF [YBL083C C-terminal 12 aa]	0.305 ± 0.035	0.106 ± 0.0037	–
VWTLELSVIGVQ [WHI2 C-terminal 12 aa]	0.542 ± 0.011	0.572 ± 0.011	–
YNIKRVLGVVYC [YAL067W-A C-terminal 12 aa]	0.345 ± 0.031	0.362 ± 0.0077	–
SSSYNYNVHKLA [YDR278C C-terminal 12 aa]	0.6925 ± 0.0039	0.134 ± 0.013	–
IGFKRKRKHAKK [NOP4 C-terminal 12 aa]	0.703 ± 0.051	0.7117 ± 0.0028	–
RPIFPFLIVLIS [YBR196C-A C-terminal 12 aa]	0.16 ± 0.013	0.1088 ± 0.00092	–
LVRQKREHEKKE [GPT2 C-terminal 12 aa]	0.713 ± 0.0084	0.658 ± 0.021	–
KLENDISVKVED [NTG1 C-terminal 12 aa]	0.6863 ± 0.0054	0.674 ± 0.014	–
LEYYSNRDNDMN [RIF1 C-terminal 12 aa]	0.672 ± 0.042	0.69 ± 0.026	–
WTNYLEKESEKD [RUD3 C-terminal 12 aa]	0.711 ± 0.04	0.693 ± 0.045	–
PSRVALVLALKE [GLC3 C-terminal 12 aa]	0.6875 ± 0.0016	0.747 ± 0.029	–
YFKVFDWCKQKR [CLB6 C-terminal 12 aa]	0.681 ± 0.018	0.684 ± 0.043	–
TNIIRETLKSLN [ATP22 C-terminal 12 aa]	0.786 ± 0.1	–	–
IFCTLFIHTQIL [PLC1 C-terminal 12 aa]	0.138 ± 0.011	0.143 ± 0.023	–
FSAVSSWLSFIF [YNL046W C-terminal 12 aa]	0.772 ± 0.033	0.725 ± 0.013	–
FDVIKECQTLSN [PUG1 C-terminal 12 aa]	0.683 ± 0.037	0.6484 ± 0.0017	–
YLNCTEREALRP [AEP1 C-terminal 12 aa]	0.6794 ± 0.0038	0.752 ± 0.076	–
INDKNTEYTLKE [MRX9 C-terminal 12 aa]	0.703 ± 0.019	0.732 ± 0.017	–
IMICFLERRKGN [FYV1 C-terminal 12 aa]	0.652 ± 0.018	0.638 ± 0.075	–
IDASKDQDTMME [NUG1 C-terminal 12 aa]	0.693 ± 0.019	0.736 ± 0.068	–
ECRKKNYFKCKH [ATG39 C-terminal 12 aa]	0.692 ± 0.0091	0.187 ± 0.0042	–
GIGFFAVCFERD [RCM1 C-terminal 12 aa]	0.6906 ± 0.0028	0.664 ± 0.012	–
KPIEKVYFNRGI [FSF1 C-terminal 12 aa]	0.713 ± 0.051	0.7368 ± 0.0054	–
HGGNISSSTYQA [GND2 C-terminal 12 aa]	0.698 ± 0.02	0.722 ± 0.054	–
LIEDVNKLKIKA [SOV1 C-terminal 12 aa]	0.634 ± 0.029	0.645 ± 0.025	–

Sequence	protein stability index (Saccharomyces cerevisiae [1]; [4])	protein stability index (Saccharomyces cerevisiae [1]; genetic background: wild type)	also measured
DGITLDMPLFEF [AOS1 C-terminal 12 aa]	0.7107 ± 0.0043	0.731 ± 0.047	–
ATGTKSDRPIWR [SHE1 C-terminal 12 aa]	0.6627 ± 0.00093	0.72 ± 0.034	–
VFVTGILSTVYI [AIT1 C-terminal 12 aa]	0.6444 ± 0.0011	0.6108 ± 0.0049	–
EAHREQIGGATY [SMT3 C-terminal 12 aa]	0.691 ± 0.016	0.676 ± 0.011	–
NCPGCESKPVIT [SSL1 C-terminal 12 aa]	0.678 ± 0.016	0.683 ± 0.0096	–
QQQKVLAATLEK [HVG1 C-terminal 12 aa]	0.73 ± 0.0088	0.656 ± 0.012	–
DEYFNEYNNNSN [TFB1 C-terminal 12 aa]	0.7196 ± 0.0065	0.675 ± 0.013	–
WKLLDDSELGWY [RGT1 C-terminal 12 aa]	0.836 ± 0.0089	0.804 ± 0.052	–
GYEDGTIKLNKI [ASA1 C-terminal 12 aa]	0.697 ± 0.033	0.682 ± 0.018	–
ASEKEKSECVVM [MIY2 C-terminal 12 aa]	0.733 ± 0.017	0.745 ± 0.0097	–
EPKEIVDGKVLK [CAM1 C-terminal 12 aa]	0.692 ± 0.021	0.708 ± 0.034	–
KWKKNKKRKFTK [UBP10 C-terminal 12 aa]	0.729 ± 0.024	0.6898 ± 0.0066	–
QPPAAAEGEAPK [BMH1 C-terminal 12 aa]	0.712 ± 0.024	0.715 ± 0.026	–
IAPSGKYYFPFG [YMR031W-A C-terminal 12 aa]	0.718 ± 0.011	0.684 ± 0.011	–
RKNGYDIMTLHE [CLB1 C-terminal 12 aa]	0.719 ± 0.045	0.666 ± 0.027	–
DLVRTDQLCPNY [CQD1 C-terminal 12 aa]	0.681 ± 0.021	0.682 ± 0.035	–
EDGVGDPREEDE [RAD51 C-terminal 12 aa]	0.693 ± 0.023	0.6258 ± 0.0013	–
SKNILSFFTRKK [RAD30 C-terminal 12 aa]	0.774 ± 0.025	0.673 ± 0.0077	–
DSTVLDFVESIS [HER2 C-terminal 12 aa]	0.7089 ± 0.005	0.694 ± 0.06	–
KHLAKALADLIS [JHD1 C-terminal 12 aa]	0.717 ± 0.018	0.701 ± 0.032	–
ITNEVNIYSPFF [YOR105W C-terminal 12 aa]	0.73841 ± 0.00012	0.7762 ± 0.0059	–
HLCVLWVLLLCF	–	–	protein stability index (Saccharomyces cerevisiae [2]): 0.333 ± 0.011; protein stability index (Saccharomyces cerevisiae [3]; [5]): 0.286 ± 0.032; protein stability index (Saccharomyces cerevisiae [3]; [6]): 0.323 ± 0.0031; protein stability index (Saccharomyces cerevisiae [3]; [7]): 0.26 ± 0.025; protein stability index (Saccharomyces cerevisiae [3]; [8]): 0.383 ± 0.011; protein stability index (Saccharomyces cerevisiae [3]; [9]): 0.289 ± 0.015; protein stability index (Saccharomyces cerevisiae [3]; [10]): 0.246 ± 0.019; protein stability index (Saccharomyces cerevisiae [3]; [11]): 0.368 ± 0.024
LVFRIRNANRLV	–	–	protein stability index (Saccharomyces cerevisiae [2]): 0.309 ± 0.014; protein stability index (Saccharomyces cerevisiae [3]; [5]): 0.615 ± 0.046; protein stability index (Saccharomyces cerevisiae [3]; [6]): 0.7144 ± 0.0041; protein stability index (Saccharomyces cerevisiae [3]; [7]): 0.6418 ± 0.0024; protein stability index (Saccharomyces cerevisiae [3]; [8]): 0.728 ± 0.024; protein stability index (Saccharomyces cerevisiae [3]; [9]): 0.127 ± 0.015; protein stability index (Saccharomyces cerevisiae [3]; [10]): 0.164 ± 0.026; protein stability index (Saccharomyces cerevisiae [3]; [11]): 0.314 ± 0.03
LLIFGLLAVPSP	–	–	protein stability index (Saccharomyces cerevisiae [2]): 0.4771 ± 0.0012; protein stability index (Saccharomyces cerevisiae [3]; [5]): 0.585 ± 0.0093; protein stability index (Saccharomyces cerevisiae [3]; [6]): 0.587 ± 0.023; protein stability index (Saccharomyces cerevisiae [3]; [7]): 0.448 ± 0.028; protein stability index (Saccharomyces cerevisiae [3]; [8]): 0.569 ± 0.0093; protein stability index (Saccharomyces cerevisiae [3]; [9]): 0.443 ± 0.031; protein stability index (Saccharomyces cerevisiae [3]; [10]): 0.457 ± 0.013; protein stability index (Saccharomyces cerevisiae [3]; [11]): 0.542 ± 0.042
FILIFLGILSCC	–	–	protein stability index (Saccharomyces cerevisiae [2]): 0.378 ± 0.04; protein stability index (Saccharomyces cerevisiae [3]; [5]): 0.409 ± 0.0092; protein stability index (Saccharomyces cerevisiae [3]; [6]): 0.453 ± 0.058; protein stability index (Saccharomyces cerevisiae [3]; [7]): 0.356 ± 0.026; protein stability index (Saccharomyces cerevisiae [3]; [8]): 0.463 ± 0.014; protein stability index (Saccharomyces cerevisiae [3]; [9]): 0.312 ± 0.0014; protein stability index (Saccharomyces cerevisiae [3]; [10]): 0.325 ± 0.025; protein stability index (Saccharomyces cerevisiae [3]; [11]): 0.4149 ± 0.0031
